The record followed here is PMC9646525, “Cryo-EM structure of the SEA complex” (Nature, 2022).

One test addresses T1, Sea2 (S. cerevisiae (endogenous in yeast …, UniProt Q08281 1-1341)).
T1 construct: Sea2, S. cerevisiae, endogenous subunit of the SEAC (SEACAT, core); Native protein of the purified complex; two copies in the SEAC; source: endogenous, yeast cells expressing Sea4-TAP; in lysate and co-purified with Sea4-TAP (IgG Dynabeads, TEV elution)
T1 sequence (looked up): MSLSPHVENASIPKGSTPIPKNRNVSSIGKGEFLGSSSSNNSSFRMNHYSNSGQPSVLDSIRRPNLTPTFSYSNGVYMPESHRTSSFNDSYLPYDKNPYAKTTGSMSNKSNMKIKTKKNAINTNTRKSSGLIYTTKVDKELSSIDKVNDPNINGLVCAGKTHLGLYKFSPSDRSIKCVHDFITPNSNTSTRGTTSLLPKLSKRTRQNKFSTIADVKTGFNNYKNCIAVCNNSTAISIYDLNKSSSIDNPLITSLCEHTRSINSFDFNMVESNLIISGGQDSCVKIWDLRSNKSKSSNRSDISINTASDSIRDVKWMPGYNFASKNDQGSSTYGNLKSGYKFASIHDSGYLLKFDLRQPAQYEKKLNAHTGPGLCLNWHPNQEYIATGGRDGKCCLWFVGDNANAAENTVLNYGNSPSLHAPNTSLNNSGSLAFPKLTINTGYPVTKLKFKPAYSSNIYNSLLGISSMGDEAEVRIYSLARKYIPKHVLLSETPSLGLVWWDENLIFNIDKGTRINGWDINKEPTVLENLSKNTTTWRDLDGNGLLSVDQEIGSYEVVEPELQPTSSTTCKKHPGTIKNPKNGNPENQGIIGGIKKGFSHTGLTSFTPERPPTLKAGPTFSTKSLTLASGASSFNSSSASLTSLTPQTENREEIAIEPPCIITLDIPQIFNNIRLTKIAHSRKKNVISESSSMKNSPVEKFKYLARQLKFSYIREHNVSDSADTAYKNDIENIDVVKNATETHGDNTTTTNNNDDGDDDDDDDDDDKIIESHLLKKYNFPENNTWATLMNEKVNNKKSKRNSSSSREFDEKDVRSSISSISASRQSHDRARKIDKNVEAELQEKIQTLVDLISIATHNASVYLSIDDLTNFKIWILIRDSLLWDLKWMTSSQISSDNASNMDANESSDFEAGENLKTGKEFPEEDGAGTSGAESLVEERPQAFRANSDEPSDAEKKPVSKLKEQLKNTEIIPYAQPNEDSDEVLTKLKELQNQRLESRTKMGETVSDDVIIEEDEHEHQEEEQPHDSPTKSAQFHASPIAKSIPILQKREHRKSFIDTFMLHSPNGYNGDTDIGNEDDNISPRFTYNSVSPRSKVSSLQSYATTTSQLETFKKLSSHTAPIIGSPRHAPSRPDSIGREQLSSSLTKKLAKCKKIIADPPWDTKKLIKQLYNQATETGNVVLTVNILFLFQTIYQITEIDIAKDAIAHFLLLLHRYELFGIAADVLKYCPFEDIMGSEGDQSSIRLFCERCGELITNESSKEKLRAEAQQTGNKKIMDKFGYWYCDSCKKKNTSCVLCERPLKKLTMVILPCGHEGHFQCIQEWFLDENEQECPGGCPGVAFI
The test can be described thus: cryo-EM structure; endogenous SEAC purified from yeast via Sea4-TAP (IgG Dynabeads, TEV elution in 20 mM HEPES-NaOH pH 7.4, 300 mM NaCl, 2 mM DTT), on graphene-oxide-coated grids. The following applies: both partners purified.

For the next test, the target named is T2, Sea3 (S. cerevisiae (endogenous in yeast …, UniProt Q03897 1-1148)).
T2 construct: Sea3, S. cerevisiae, endogenous subunit of the SEAC; Sea3^SIP (Sea3^Nter) lies in the wing, Sea3^SAP (Sea3^Cter) in the core; Native protein of the purified complex; two copies in the SEAC; source: endogenous, yeast cells expressing Sea4-TAP; in lysate and co-purified with Sea4-TAP (IgG Dynabeads, TEV elution)
T2 sequence (looked up): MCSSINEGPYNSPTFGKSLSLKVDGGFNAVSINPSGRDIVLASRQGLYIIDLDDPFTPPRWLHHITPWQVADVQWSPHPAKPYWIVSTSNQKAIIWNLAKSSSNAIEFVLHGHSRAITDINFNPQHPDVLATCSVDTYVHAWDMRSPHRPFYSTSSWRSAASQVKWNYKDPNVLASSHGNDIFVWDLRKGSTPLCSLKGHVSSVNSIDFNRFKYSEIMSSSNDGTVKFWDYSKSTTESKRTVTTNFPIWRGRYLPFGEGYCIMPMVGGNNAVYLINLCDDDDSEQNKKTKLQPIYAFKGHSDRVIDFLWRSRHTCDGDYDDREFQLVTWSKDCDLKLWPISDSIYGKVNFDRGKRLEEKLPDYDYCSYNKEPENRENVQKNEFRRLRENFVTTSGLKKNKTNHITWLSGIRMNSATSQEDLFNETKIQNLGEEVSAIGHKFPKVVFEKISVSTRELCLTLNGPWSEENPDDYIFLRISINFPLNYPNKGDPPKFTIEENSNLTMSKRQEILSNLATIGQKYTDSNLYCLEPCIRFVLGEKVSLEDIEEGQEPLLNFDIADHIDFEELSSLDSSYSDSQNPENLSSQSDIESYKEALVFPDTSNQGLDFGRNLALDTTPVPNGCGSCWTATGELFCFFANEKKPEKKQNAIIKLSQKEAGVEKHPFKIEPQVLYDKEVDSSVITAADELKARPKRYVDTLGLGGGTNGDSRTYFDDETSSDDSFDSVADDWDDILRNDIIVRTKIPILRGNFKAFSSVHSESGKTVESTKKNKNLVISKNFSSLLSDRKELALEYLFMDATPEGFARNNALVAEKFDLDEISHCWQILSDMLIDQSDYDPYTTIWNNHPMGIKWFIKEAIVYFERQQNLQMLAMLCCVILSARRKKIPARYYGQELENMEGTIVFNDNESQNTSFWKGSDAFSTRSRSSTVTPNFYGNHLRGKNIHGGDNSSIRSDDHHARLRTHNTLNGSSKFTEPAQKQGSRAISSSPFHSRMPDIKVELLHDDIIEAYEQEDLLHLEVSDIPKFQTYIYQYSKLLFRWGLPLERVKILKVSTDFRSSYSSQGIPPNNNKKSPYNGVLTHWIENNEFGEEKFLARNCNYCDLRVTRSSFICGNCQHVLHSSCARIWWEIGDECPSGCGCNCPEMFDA
Described as above. The following applies: both partners purified.

B1: Seh1 (natural protein, UniProt P53011 1-349, looked up)
chain: MQPFDSGHDDLVHDVVYDFYGRHVATCSSDQHIKVFKLDKDTSNWELSDSWRAHDSSIVAIDWASPEYGRIIASASYDKTVKLWEEDPDQEECSGRRWNKLCTLNDSKGSLYSVKFAPAHLGLKLACLGNDGILRLYDALEPSDLRSWTLTSEMKVLSIPPANHLQSDFCLSWCPSRFSPEKLAVSALEQAIIYQRGKDGKLHVAAKLPGHKSLIRSISWAPSIGRWYQLIATGCKDGRIRIFKITEKLSPLASEESLTNSNMFDNSADVDMDAQGRSDSNTEEKAELQSNLQVELLSEHDDHNGEVWSVSWNLTGTILSSAGDDGKVRLWKATYSNEFKCMSVITAQQ
notes: Seh1, S. cerevisiae, endogenous subunit of the SEAC (SEACAT, core); Native protein of the purified complex; six copies in the SEAC; source: endogenous, yeast cells expressing Sea4-TAP; in lysate and co-purified with Sea4-TAP (IgG Dynabeads, TEV elution)
As to B1, the binding result with Sea2 and with Sea3 was “binds” in each case.
